Source: publication PMC5258196 (Biochemistry, 2016)

Columns and labels:
[1] = target: GrxS14 (Arabidopsis thaliana) (UniProt Q84Y95); details: cited from earlier work
[2] = target: T1, S. cerevisiae monothiol glutaredoxin Grx3 (S. cerevisiae, UniProt Q03835 1-250); experiment: ITC
T1 sequence (looked up): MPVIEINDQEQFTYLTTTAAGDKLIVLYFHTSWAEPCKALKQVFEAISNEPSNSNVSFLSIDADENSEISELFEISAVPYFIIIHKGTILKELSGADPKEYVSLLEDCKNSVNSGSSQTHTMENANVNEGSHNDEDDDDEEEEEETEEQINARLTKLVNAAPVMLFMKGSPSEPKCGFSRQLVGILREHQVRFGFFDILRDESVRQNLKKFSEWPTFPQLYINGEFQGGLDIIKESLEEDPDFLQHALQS

[3] = target: T2, E. coli monothiol glutaredoxin Grx4 (E. coli, UniProt P0AC69 1-115); experiment: ITC
T2 sequence (looked up): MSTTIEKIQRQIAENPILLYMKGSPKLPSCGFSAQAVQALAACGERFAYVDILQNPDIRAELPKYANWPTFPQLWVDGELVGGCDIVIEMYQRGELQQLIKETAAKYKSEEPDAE

Sequence of GrxS14 (Arabidopsis thaliana) (Q84Y95 64-173): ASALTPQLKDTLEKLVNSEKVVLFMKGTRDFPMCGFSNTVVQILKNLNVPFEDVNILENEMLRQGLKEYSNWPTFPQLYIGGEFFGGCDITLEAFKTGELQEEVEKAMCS

In the case of BolA1 (from UniProt Q682I1), the Kd [1] is given as 7 µM.

B1: S. cerevisiae Fra2 (natural protein, UniProt P53082 1-120, looked up)
chain: MTGERIEKVKINDEFAKSHFLTTQWRETKRQRHYKMPVTEQGLRERIESAIPQVYHIIVTDLSYGCGQSFDIVVVSDFFQGKSKLMRSRAVNKAVKEELQEIHAFSCKCYTEEEWSKIVV
In the case of B1, the Kd [2] is reported as 20.8 ± 6.6 µM, the dH [2] is reported as -10.1 ± 5.4 kcal/mol and the “stoichiometry N” value [2] is reported as 0.4 ± 0.19 sites.

B2: E. coli BolA (natural protein, UniProt P0ABE2 1-105, looked up)
chain: MMIRERIEEKLRAAFQPVFLEVVDESYRHNVPAGSESHFKVVLVSDRFTGERFLNRHRMIYSTLAEELSTTVHALALHTYTIKEWEGLQDTVFASPPCRGAGSIA
For B2, the Kd [3] was 4.6 ± 0.9 µM, the dH [3] was -3.1 ± 0.1 kcal/mol and the “stoichiometry N” value [3] was 0.97 ± 0.03 sites.

B3: E. coli BolA-like protein IbaG (natural protein, UniProt P0A9W6 1-84, looked up)
chain: MENNEIQSVLMNALSLQEVHVSGDGSHFQVIAVGELFDGMSRVKKQQTVYGPLMEYIADNRIHAVSIKAYTPAEWARDRKLNGF
For B3, the Kd [3] was 3.4 ± 0.1 µM, the dH [3] was -5.9 ± 0.1 kcal/mol and the “stoichiometry N” value [3] was 0.7 ± 0.01 sites.
